Consider four molecules from US20160031942A1 (LONDON HEALTH SCIENCES CENTRE RESEARCH, published 2016).

Ends that are not written are not given here. * marks the point of attachment. FITC = O=C1OC2(c3ccc(O)cc3Oc3cc(O)ccc32)c2ccc(NC(=S)*)cc21; Ahx = NCCCCCC(=O)O

In test [1] the target is T1, Recombinant protein RHAMM-CT (truncated RHAMM, carboxy terminus containing the HA binding domain, amino acids … (Mus musculus (Mouse), UniProt Q00547 706-766)).
T1 construct: Expressed in E. coli BL21 from pPAL7-RHAMM as eXact-tagged protein and purified on Profinity eXact resin (fluoride elution); M.W. 7.1 kDa, pI 10.1; also called recombinant RHAMM
T1 sequence: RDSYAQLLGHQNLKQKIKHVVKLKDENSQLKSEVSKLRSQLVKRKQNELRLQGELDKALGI
As to the kind of experiment: SPR screening (ProteON XPR36), RHAMM immobilised, peptide at 10 µM. As for the experimental part:
ProteON XPR36 system was used for the selection and ranking of different tubulin derived peptides against RHAMM. For immobilization of RHAMM, the ProteON GLC sensor chip surfaces were activated by amine coupling using 100 mM EDAC and 24 mM sulfo-NHS. RHAMM (30 μg/mL in sodium bicarbonate buffer, pH 9.7) was injected at a flow a rate of 30 μl/min. A buffer sample was injected on a different sensor plate for use as a reference. Ethanolamine HCl (1M, pH 8.5) was then injected to deactivate any remaining surface groups. Peptides (10 μM in PBS-T, 2% DMSO) were injected to a RHAMM functionalized surface at 50 μL/min for 3 minutes followed by a 10 minute dissociation (i.e. injection of PBS-T buffer) period. The surfaces were regenerated using two injections of 30 μL of 1M NaCl prior to the injection of the next peptide. In all experiments, reference subtraction was performed using data obtained from reference plate (No RHAMM) and RHAMM functionalized plate.
After immobilization of RHAMM on the SPR sensor chip, injection of a series of tubulin derived peptides was carried out. Association of the peptides with RHAMM proceeded for 3 minutes and the dissociation in analyte free buffer was carried out for 10 minutes. […]

The target of test [2] is T2, Recombinant protein RHAMM-CT (truncated RHAMM, carboxy terminus containing the HA binding domain, amino acids … (UniProt Q00547 706-766)).
T2 chain: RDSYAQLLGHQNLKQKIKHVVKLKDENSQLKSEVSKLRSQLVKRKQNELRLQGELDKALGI
The experiment in a line: SPR. For orientation: In SPR one partner is held on a chip, and binding of the other changes the refractive index at the surface.

Test [3] addresses T1, Recombinant protein RHAMM-CT (truncated …). As to the kind of experiment: solid phase peptide binding assay (ELISA), immobilised RHAMM. A general note: ELISA stands for enzyme-linked immunosorbent assay.

B1: peptide 14a (SEQ ID NO: 14), unmodified tubulin-derived peptide, sequence directly flanking beta-IIIa CTT (peptide)
peptide: FTEAESNMNDLV-NH2
notes: Synthetic 12-mer made on Rink amide MBHA resin
B1: the binding result in test [1] is “binds”. Also, in test [2], the Kd (usually the concentration at which binding is half-saturated) came to 0.03 µM.

In the case of {FITC-Ahx}-EAFEDEEEEIDG-NH2 [peptide 12c (SEQ ID NO: 33), fluorescein-conjugated SEQ ID NO: 12], in test [3], the binding result was “binds”.

Regarding {FITC-Ahx}-SVEAEAEEGEEY-NH2 [peptide 3c (SEQ ID NO: 27), fluorescein-conjugated SEQ ID NO: 3], the binding result in test [3] is reported as “binds”.

Take {FITC-Ahx}-GEFEEEAEEEVA-NH2 [peptide 11c (SEQ ID NO: 31), fluorescein-conjugated SEQ ID NO: 11]: in test [3], the binding result was “binds”.
